Paper PMC8612989 (Environmental microbiology reports, 2021)

Assays:
[1] = biological target: Ayg1p chain-shortening enzyme (Aspergillus fumigatus, UniProt Q9UVV1); assay: T4HN production detected in yeast co-expressing alb1 and ayg1; assay type: cell-based; details: S. cerevisiae INVSc1-npgA, YWA1 formed in the cell by Alb1p; 30 °C
[2] = system: O=C1C[C@H](O)Cc2cc(O)cc(O)c21; assay: purified protein; details: conditions not separately told (YWA1 assay: pH 6.0, 30 °C)
[3] = biological target: T1, Arp1p with His-tag (Arp1p-HT), Arp1p dehydratase of Aspergillus fumigatus (Aspergillus fumigatus (strain B-5233)), O14434; assay: SEC; details: remark: other sources report otherwise
T1 chain: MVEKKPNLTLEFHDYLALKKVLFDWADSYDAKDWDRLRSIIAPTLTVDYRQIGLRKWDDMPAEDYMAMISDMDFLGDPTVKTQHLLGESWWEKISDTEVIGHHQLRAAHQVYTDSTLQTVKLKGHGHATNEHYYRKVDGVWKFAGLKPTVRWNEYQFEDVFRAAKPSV

Molecule: CC1(O)CC(=O)c2c(cc3cc(O)cc(O)c3c2O)O1 (stereo not shown) [YWA1]
- T4HN production detected in yeast co-expressing alb1 and ayg1 [1]: co-transformed into yeast (S. cerevisiae INVSc1-npgA/pYES-alb1+p425-ayg1) and T4HN production was detected

Molecule: Arp1p (Arp1p-HT) dehydratase (Aspergillus fumigatus Af293)
- Km [2]: 15.7 µM
- kcat [2]: 2.7 s⁻¹

B1: Arp1p with His-tag (Arp1p-HT), Arp1p dehydratase of Aspergillus fumigatus, O14434 1-168 (enzyme)
chain: MVEKKPNLTLEFHDYLALKKVLFDWADSYDAKDWDRLRSIIAPTLTVDYRQIGLRKWDDMPAEDYMAMISDMDFLGDPTVKTQHLLGESWWEKISDTEVIGHHQLRAAHQVYTDSTLQTVKLKGHGHATNEHYYRKVDGVWKFAGLKPTVRWNEYQFEDVFRAAKPSV
- stoichiometry N [3]: 3
